# Where two headings read alike, the source gives them in different places.
# T1: human GARP protein not in any GARP/TGFβ1 complex (protein used in ELISA and Octet) (human, UniProt Q14392 20-627, limits assumed)
# T1 construct: Coated on plates at 2 µg/ml in the ELISA; also called hGARP; human GARP alone
# T1 sequence (looked up): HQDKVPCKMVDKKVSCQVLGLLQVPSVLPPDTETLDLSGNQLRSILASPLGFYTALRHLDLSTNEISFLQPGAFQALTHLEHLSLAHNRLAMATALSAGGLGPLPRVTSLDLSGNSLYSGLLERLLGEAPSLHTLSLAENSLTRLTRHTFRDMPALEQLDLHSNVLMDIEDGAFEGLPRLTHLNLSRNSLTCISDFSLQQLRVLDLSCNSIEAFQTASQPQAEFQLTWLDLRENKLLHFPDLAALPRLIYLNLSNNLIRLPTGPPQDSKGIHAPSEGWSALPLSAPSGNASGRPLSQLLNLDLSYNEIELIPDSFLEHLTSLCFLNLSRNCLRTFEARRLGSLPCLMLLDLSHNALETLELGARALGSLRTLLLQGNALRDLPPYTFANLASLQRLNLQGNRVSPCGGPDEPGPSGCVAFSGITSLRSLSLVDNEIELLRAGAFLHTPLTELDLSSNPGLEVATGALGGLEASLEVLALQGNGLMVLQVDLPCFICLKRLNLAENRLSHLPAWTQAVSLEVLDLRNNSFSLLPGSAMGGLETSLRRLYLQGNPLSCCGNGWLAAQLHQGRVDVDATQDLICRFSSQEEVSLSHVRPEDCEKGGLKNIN
# How the values were obtained:
# [1] = target: T2, human GARP/latent TGFβ1 complex on cells (human, UniProt Q14392 20-662; P01137 30-390); assay: flow cytometry on human GARP/latent TGFβ1 transfected CHO-S cells, goat anti-human IgG(H+L) FITC
# T2 construct: whole, on cells; also called human GARP/TGFβ1 complex; human GARP/TGFβ complex
# [2] = target: T3, mouse GARP/latent TGFβ1 complex on transfected CHO-S cells (mouse); assay: flow cytometry on mouse GARP/latent TGFβ1 transfected CHO-S cells, goat anti-human IgG(H+L) FITC
# T3 construct: also called mouse GARP/TGFβ1 complex; mouse GARP/TGFβ complex
# [3] = target: T2, human GARP/latent TGFβ1 complex on cells; assay: flow cytometry on human GARP/latent TGFβ1 transfected CHO-S cells, goat anti-human IgG(H+L) FITC; remark: listed apart in the source
# [4] = target: T4, human GARP/TGFβ1 complex (protein used in ELISA and Octet) (human, UniProt Q14392 20-627; P01137 30-390, limits assumed); assay: Octet
# T4 construct: Coated on plates at 4 µg/ml in the ELISA; also called hGARP/TGFβ1; human GARP/latent TGFβ1 complex
# [5] = target: T1, human GARP protein not in any …; assay: Octet
EC50 (read off the curve) [1] [µg/mL],EC50 (read off the curve) [2] [µg/mL],EC50 (read off the curve) [3] [µg/mL],Kd [4] [nM],Kd [5] [nM],Binder
~1,–,–,–,–,"Clone GA1#7 (antibody, V domains shown) VH: QVQLVQSGGGVVQPGRSLRLSCAASGFTFSSYAMHQVRQAPGKGLEWVAVISYDGSQKYYADSVKGRFTISRDNSKNTLYLQMNSLRAEDTAVYYCARDALRTYYYYGMDVWGQGTTVTVSS VL: SYELTQPPSVSVSPGQTARITCSGDALPDRYTYWYQQKPGQAPVLVIYSDNERPSGIPERFSGSSSGTTATLTINGVQAEDEADYYCQSSDDTYTFGGGTKLTVL"
~1,~0.2,~0.6,–,–,"Clone GA1 (antibody, V domains shown) VH: QVQLVQSGGGVVQPGRSLRLSCAASGFTFSSYAMHQVRQAPGKGLEWVAVISYDGSNKYYADSVKGRFTISRDNSKNTLYLQMNSLRAEDTAVYYCARDVLRTYYYYGMDVWGQGTTVTVSS VL: SYELTQPPSVSVFPGQTARITCSGDALPDRYTYWYQQKPGQAPVLVIYSDNERPSGIPERFSGSSSGTIATLTINGVQAEDEADYYCQSADDTYTFGGGTKLTVL"
~1,–,–,0.281,–,"Clone GA1#8 (antibody, V domains shown) VH: QVQLVQSGGGVVQPGRSLRLSCAASGFTFSSYAMHQVRQAPGKGLEWVASISYDGSNKYYADSVKGRFTISRDNSKNTLYLQMNSLRAEDTAVYYCARDALRTYYYQGMDVWGQGTTVTVSS VL: SYELTQPPSVSVSPGQTARITCSGDALPDRYTYWYQQKPGQAPVLVIYSDNERPRGIPERFSGSSSGTTATLTINGVQAEDEADYYCQSADYTYTFGGGTKLTVL"
–,–,–,0.696,0.429,"Clone hGA17 (antibody, human IgG1, kappa, V domains shown, Humanized form of mouse clone GA17; kappa light chain) VH: QVQLVQSGAEVKKPGASVKVSCKASGFNIKDTYFHWVRQAPGQGLEWMGRIDPTNGNGRYAQKFQGRVTMTRDTSTSTVYMELSSLRSEDTAVYYCATSTGTGYFALVYWGQGTTVTVSS VL: DIQLTQSPSFLSASVGDRVTITCKASQNVGSAVAWYQQKPGKAPKLLIYWSSTRHTGVPSRFSGSGSGTEFTLTISSLQPEDFATYYCQQYSNYPLTFGGGTKLEIKR"

# From patent publication US20230340098A1 (SHANGHAI HENLIUS BIOTECH, published 2023)
